These results are taken from US5888763A, “Peptides specific for the first Crk-SH3 domain” (The Rockefeller University, priority 1994, dated 1999).

Common to all, as to experiment: SH3 blot assay with 35S-labeled gst-C3G CB-region
Holding throughout (assay type): binding

One assay deals with T1, PI3Kp85-a-SH3 domain (Homo sapiens, UniProt P27986).
T1 construct: The PI3Kp85-a-SH3 domain was a gift of L. Cantley
On the procedure:
(§1) SH3 Blot Assay. […] of gst or equimolar amounts of SH3-fusion proteins were subjected to SDS-PAGE, electroblotted and incubated with […] (70,000 dpm/ml) ^35 S-labeled gst-C3G CB region as described (Feller et al., supra). Filters were exposed over night.

Assay [1] relates to Grb2, the individual Grb2SH3 domains. On the procedure:
as §1

A further assay addresses T2, CrkSH3(N) domain (Mus musculus, UniProt Q64010).
T2 construct: probed with 1-2 μg/ml ^35 S-labeled gst-fusion CrkSH3(1) domain; made in house; host or cells: bacteria
On the procedure: as §1

T2 sequence (Q64010 132-192 limits assumed): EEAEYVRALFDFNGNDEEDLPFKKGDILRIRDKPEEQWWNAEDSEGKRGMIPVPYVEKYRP
T1 sequence (P27986 3-79 limits assumed): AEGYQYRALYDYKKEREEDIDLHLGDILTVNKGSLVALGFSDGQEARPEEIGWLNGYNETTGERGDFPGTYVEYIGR

B1: C3G CB-region: C3G region containing all four CB-sequences expressed as 35S-labeled gst-fusion protein (protein)
chain: NSPPPALPPKKRQSAPSPTRVAVVAPMSRATSGSSLPVGINRQDFDVDCYAQRRLSGGSHSYGGESPRLSPCSSIGKLSKSDEQLSSLDRDSGQCSRNTSCETLDHYDPDYEFLQQDLSNADQIPQQTAWNLSPLPESLGESGSPFLGPPFQLPLGGHPQPDGPLAPGQQTDTPPALPKKKRRSAASQTADGSGCRVSYERHPSQYDNISGEDLQSTAPIPSVPYAPFAAILPFQHGGSSAPVEFVGDFTAPESTGDPEKPPPLPEKKQKHMLAYMQLLEDYSEPQPSMFYQTPQNEHIYQQKMKLLMEVYGFSDSFSGVDSVQELAPPPALPPAQRQLEPPAGKDGHPRDPSAVSVVPGKDSRDGSERAPKDP
Consider B1, for which the “binding to PI3Kp85-a-SH3 domain” value with PI3Kp85-a-SH3 domain is recorded as “only bound weakly”. Also, the “binding to Grb2 and the individual Grb2SH3 domains” value in assay [1] is “only bound weakly”. For the same molecule, the “binding to gst-fusion constructs containing the CrkSH3(N) domain” value with CrkSH3(N) domain is given as “bound strongly”.
